Data on seven molecules can be found in paper PMC10641233, “The C-terminal domain of the antiamyloid chaperone DNAJB6 binds to amyloid-β peptide fibrils and inhibits secondary nucleation” (The Journal of Biological Chemistry, 2023).

Usually Kd stands for the concentration at which binding is half-saturated. Read a high Kd as lower affinity. In general, stoichiometry N refers to a count of units in the complex or per binding partner.

B1: C-terminal domain (CTD) of DNAJB6, WT sequence (residues 186–242 plus a starting Met) (domain or fragment)
chain: MGNFKSISTSTKMVNGRKITTKRIVENGQERVEVEEDGQLKSLTINGKEQLLRLDNK
notes: starting Met added before residue 186; numbers count on: full-length DNAJB6; also called WT CTD

Data set [1] deals with Aβ42 fibrils (amyloid-β peptide Aβ(M1-42), fibrillar form).
For data set [2] the target is unchanged. Kind of data set: SPR; Aβ42 fibrils immobilised, construct injected (CTD at 2, 5 and 10 μM); 20 mM sodium phosphate, 0.2 mM EDTA, pH 8.0, 0.005% Tween-20. A general note: SPR reads the build-up and loss of mass on a sensor chip optically.
The target in data set [3] is S100G-CTDβ1–2 (β-strands 1 and 2 of the DNAJB6 CTD, residues 187–212, grafted between the two EF-hands of human S100G) (UniProt O75190). The data set is described as follows: cross-linking; 10 μM construct, BS3 amine-reactive crosslinker, 20 mM sodium phosphate, 0.2 mM EDTA (pH 8.0), SDS-PAGE with integration of band intensities and LC-MS/MS of excised bands; dimer to monomers; KD are lower bounds.

For data set [4], the target named is S100G-CTDβ1–2STA (ST/A-substituted variant of S100G-CTDβ1–2) (UniProt O75190). Described as above.
In data set [5] the target is S100G-CTDβ1–4 (four β-strands of the DNAJB6 CTD, residues 187–231, grafted between the two EF-hands of human S100G) (UniProt O75190). The description is as above.
In data set [6] the target is S100G-CTDβ1–4STA (ST/A-substituted variant of S100G-CTDβ1–4) (UniProt O75190). The data set is described as above.
Data set [7] deals with the molecule itself. The data set is described as follows: native MS; equimolar mixture of CTD and CTD STA ionised from 200 mM ammonium acetate, pH 6.8, source temperature 25 °C, gentle ionisation; also nonmixed samples (Fig. S3).
Data set [8] concerns the molecule itself. Kind of data set: cross-linking; 10 μM construct, BS3 amine-reactive crosslinker, 20 mM sodium phosphate, 0.2 mM EDTA (pH 8.0), SDS-PAGE with integration of band intensities and LC-MS/MS of excised bands; dimer to monomers; KD are lower bounds.
Data set [9] deals with the molecule itself. Kind of data set: cross-linking; 10 μM construct, BS3 amine-reactive crosslinker, 20 mM sodium phosphate, 0.2 mM EDTA (pH 8.0), SDS-PAGE with integration of band intensities and LC-MS/MS of excised bands; tetramer to dimers; KD is a lower bound.
For data set [10], the target named is B1. Kind of data set: native MS; equimolar mixture of CTD and CTD STA ionised from 200 mM ammonium acetate, pH 6.8, source temperature 25 °C, gentle ionisation; also nonmixed samples (Fig. S3). As to conditions: both partners purified.

Turning to “C-terminal domain (CTD) of DNAJB6, WT sequence (residues 186–242 plus a starting Met) (from UniProt O75190-2 186-241) (domain or fragment)”, in data set [1], the ThT fluorescence, reaction half time t1/2 of the aggregation of 3 μM Aβ42, CTD:Aβ42 M ratios from 0.05:1 to 1:1 worked out at 10 fold. The molecule also had a Ka in [2] of 100000 M⁻¹.

“S100G-CTDβ1–2 (β-strands 1 and 2 of the DNAJB6 CTD, residues 187–212, grafted between the two EF-hands of human S100G) (from UniProt O75190-2 187-212)” had a Ka in data set [2] of 300000 M⁻¹. In data set [3], the dissociation constant (Kd) was > 60 µM.

As for “S100G-CTDβ1–2STA (ST/A-substituted variant of S100G-CTDβ1–2) (from UniProt O75190-2 187-212)”, the Kd in data set [4] was > 1 mM.

The molecule “S100G-CTDβ1–4 (four β-strands of the DNAJB6 CTD, residues 187–231, grafted between the two EF-hands of human S100G) (from UniProt O75190-2 187-231)” came in with a Ka in data set [2] of 1e+07 M⁻¹. Besides, the Kd in data set [5] was > 500 µM.

Regarding “S100G-CTDβ1–4STA (ST/A-substituted variant of S100G-CTDβ1–4) (from UniProt O75190-2 187-231)”, the equilibrium dissociation constant (Kd) in [6] is > 1 mM.

Consider B1, for which the “stoichiometry N” value in data set [7] is 2; in [9], 4. The Kd in [8] was ≥ 30 µM; in data set [9], ≥ 2000 nM.

B2: CTD STA (CTD with S190A + S192A + T193A + S194A + T195A in β1) (domain or fragment)
chain: MGNFKAIAAAAKMVNGRKITTKRIVENGQERVEVEEDGQLKSLTINGKEQLLRLDNK
notes: starting Met added before residue 186; numbers count on: full-length DNAJB6; also called S/T-A-substituted variant
With B2, the binding result in data set [10] is on record as “binds”. Further, the “stoichiometry N” value in data set [7] amounted to 2. In addition, the Kd in data set [8] is ≥ 600 µM.
